experiment: soluble fraction after stress (log2 fold change); higher = more stays soluble; pooled small domains, quantitative proteomics; conditions: stress: 50 degC
Summary of the method: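 Each library was heated to 50°C as a stress step. The libraries, made up of small protein domains, were pooled and analysed at high throughput by quantitative proteomics. The reported value is the base-two logarithm of the fold change in each protein's soluble amount after stress, taken as a measure of aggregation propensity. The higher the value, the more protein stays in solution.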

Row | Sequence | soluble fraction (log2)
1 | HMDPTIRRGELIDAASRLFLSKGYAATSVRDILDEVGNRTASPSVFYYYFKSKEEIYQAVLRRHSE | -0.847
2 | HMNNQILYERLRDLRERNHFTQAFVSSKLNIGRATYSNYERGKRTPSLDVIMDLASFYKVPFTYF | -0.0166
3 | HMISENFVEAKILLTEDNRPKSLEILKDIIRQHDKVYSPLSLFLILDEDLEENKEIILEYFDLVLS | -0.185
4 | HMDAMQAFPNPTVDEIHFVTPTTGRVYNAHGQLVMVLKNAQLVNVRQWSAGQYVIVREDGYAVRWIK | -1.04
5 | HMDSVVPNVVGMTAEKANKALTDAGLNVKITGATIGSGAVVHSQSIPAGTVTSKGTVVSIEMRFAAAEGD | -0.135
6 | HMKKYLIIDAANEKIIFKIIDNNKTYTNDYENSRKNFDRFAVLLFNFLNKNMISFDTIDKAL | -0.0864
7 | HMQMSPREKMIYSFIESHPGTKSGEIAEKLNVPLPTVKRILSEMVSGNFIAKHGSGIGTNYSTEK | 0.233
8 | HMSDTFENILQRLIKATGRKNASEMANALGLSPQSVYSAKTKGKIPPAWIFAAAERFNASADWIYFGY | -1.01
9 | HMGSLGSLLKSVRNQRGLSRQQMAQSLNIGVRAIEQIEEGERKPDLELLNRYARGLMDPSVT | -0.0584
10 | HMRIASANAIYDELLNKRDDAKLAELKQEDINLYALYILQNGSADERAALENTQGIDVVLKEIINLQNG | -0.309
11 | HMSSEITYDKFIEMVEEGNVKEVTLQSDTLTIKPKHQDSAFSEKEYYTRQMESADQLTERLEGTGIEFHS | 0.104
12 | HMNSKKRQAILESLRSVTDHPTAEMIYNRLKPEYPDLSLGTVYRNLAMFLEEGQVISVGTVDGQERYDAR | -0.306
13 | HMAQLPADMSKVKSADISEAQLQEFIQKATSSGYNMNQIEMEFAKRGMSENEVSLLRPRLRRLMAS | -0.031
14 | HMIGKDLLGYEVFSESGDLVGILKDVMWLPHSDVYVITNGGKELLIPVIPEVVKGINHEQGVIVISPM | 0.0196
15 | HMKETERKILQAVLGLPLKYRDVIHLFYYEEMSVKEIAEVLHRQESTVTSQLTRARGILKKNL | 0.09
16 | HMVARPVLQIGSTGADVTAIQARLGVSQTGYFGVLTAAAVTNFQRSNGIAASGKVGATTWAKLMQSA | -1.14
17 | HMRAVPSIAFVTQKLIEQGVTMEQLVRSLLLDHEEYENDDSLERTADELFGKARMIISNYTPE | -1.01
18 | HMSINQTIEGKKQGYWIIYGNMRNLQEYLSNEVIEEGQFKNSRKEGVWRKYFPGGQMKSEITYINGRP | -0.309
19 | HMKNINTNIGKNLKRIRKLRGLTIDALATSSGVSKSMISEIERGIRNPSITIIWSLANALKTPLNYFLKE | -0.115
20 | HMETGELQQILEDVFSKNIGIVQDKREAAFSILMGMIMAKSRGRADGALVSTLLKKKLTEFLATSDQVR | 0.0929
21 | HMTTGLETYPGKIAVVSDDFIDGEGRVQLDGALWRAKTKDHQQLKQGDHVTIVNVKGLTLTVMPDD | 0.23
22 | HMKDYQGNILIQSEGDRIDKFLFKYFNSFSRTKIKNHIINGNILVNDKNTIPAYVLKINDKISYDLSTSVK | -1.04
23 | HMESPELIHILKEAEWQIWQQIQGLPEKQRIAMTLFAMDDLSYQEIADVMKVSVSAIESLLFRARTQLKKY | -0.601
24 | HMRSRHYRFSTPFLDRLIAEIDWNSDNALSIFNQKLVHFDFLKYFSAIQPGSIVEIENLNFIWTGKRLEAH | -2.55
25 | HMDDYRIEDMMTVVEEQVIRQKETNLSWFFKRAGSLNEIITIFLAALELIKVHRVYVKQEHNFDDIILRKE | 0.133
26 | HMVWNVEQIKRAVDQLPDGYRVVFTLYLFEGYDHREIADILGISEGGSKSQFNRAKSKLKEILTAMS | -1.98
27 | HMDAQLRVPDLTPYNYSELKENTSLYEGFTIEVVEERSTGDYAAGTVLDQDPKADTLIQDGDSTVIKLVIA | -0.12
28 | HMFKMRVNGKEVIGMAITAKPQANPIDVADEIKKFVIDANTKLPSTMKLEVLYDATGIFRASISEVIS | -0.273

Row | Sequence | soluble fraction (log2)
29 | HMSEQSEALRTGLDQLPINQRTALTLFHLHELNQSEVAKIMNISVGAVESLLFRGRQKMKQLLTSD | -0.725
30 | HMTKRTEPSILQNFDTEIAELIAKNRGISIMDALRIFLASKTHEMLENDEMKLWYFSPLAVFDMWENE | 0.088
31 | HMPKAPHETLSRREMEVLLLLSEGVTLTRIGDTIHVSVKTVSTYRARILQKLDLQSNAELTRYVLQHKL | -3.38
32 | HMDDIVPHSTKNHIIKTFLSLMNSLDIITDKNKKSLNQNVHIIFNKFNFSKKEANLFIGVLNRIQKALK | 0.552
33 | HMKTTKDSVFEYIQKELMTNEEYKQGINTNVIAQHFGLQRSNISTILNELVKEDRLEKTNTRPVLYFLPQ | -0.0929
34 | HMGITRQQALQQINQSASPKKILNASLGKRGSEFVWDIGYLSKSGKLNYVTYSFRSGEQLNAIKN | -1.02
35 | HMRDKTMLGNVIRTRRKKMNLTLEELSKQVGITSGGLSQIERGLVDPSLSVLRRISRALNLPMNVMFSE | -0.281
36 | HMAARLMRALIPYAQGGLLAKLHEDGQVLSEEYTGEGIEVKALADEQLFGRLTVQLGEQAVSWQD | 0.16
37 | HMASSVKAPLPGVILDIKVKVGDTIKNGDTVVILEAMKMENNIHSDKDGVVKSIEVNKGDSVLEGATLLTI | -0.0654
38 | HMIMNLNVLANNVRRLRTAQRLSQSALASKAGLSVPAIKNLENARNEPRVNTVQVIAHALEVRLQDLFAPT | -1.62
39 | HMQKLLGPFEDFVKIKLDKYPDTKAAQMHDWLKEHYPDFPEVTPKTVYNFVMYVRQRHNIPIPD | -0.0276
40 | HMNRGITVIVNNEEIKMKEKAQYVVVDIFDYIDFDLTVPKGSINITLNGENTPYTASIKDGDVIEVFW | -0.266
41 | HMIAVLKQGVSKQQVENLITWFRSRGLDVHISEGKFQTIIGLIGDTSKVDIDLLNGLEIIESVKRI | -0.0376
42 | HMSFGFFELKSSDTDKLFAYLNNNEHFGNIKEENGLVTAFLTSELDAQTLNKLLFDNGIIASHLVKRK | -0.51
43 | HMSKPVYILINKPKGFLASSTDKKVKKSVNDLINISNLNKIYPFDNMGRTSSGLLLLSNDLYFKKHFKDKI | 0.341
44 | HMQRRHESTPIPADFDYAAVRGLSAEVQQKLERVRPLSIGQAQRIPGMTPAAISLLLVHLERQRRSRV | -0.152
45 | HMVAPPILNITTHIFAEEADLRMVMINGVTRREGDSLGENHRLLEITERGLILIFHNKQYTLDV | -3.68
46 | HMHDLDALTGLSGEARSKVYEEGSVFVAGEMWSAKSDAVIPAGSSIRVVRREGFILVVEKDS | -1.12
47 | HMSLEEIPLEERLGPGGLDPVAVYDSLPREMRDAFDSGSVSALREFVNALPAEDAARHMKAMVDSGLWVPT | 0.0547
48 | HMPNFDPSYILDFGDVIQLQLVGQKNQILEIPILRDGSVNLPDIGKIFLSGMSLEEATKIIKDTYSA | -0.679
49 | HMESPLEQLTNRELQTLQMLGKGLSTKQIAAQLNLSVKTVETYRENLKRKLNLDSGSELIRYAIHRSNE | 0.469
50 | HMKLTKPKLIQLIHIAKSKLNMDELSYRVLLDNLTGKTSTTKMTVGELLKVYESMKDKGFKPQV | -0.166
51 | HMAIGERIRFLRTLRRMTQKELGLAAGFPEKNASIRMAQYENGTRTPKAELTAVLAEILKVSPQALTV | -1.2
52 | HMSLIDYLNELMNEKNITVAQVAKNSGIGEYVYKIFNGERNAKRDTLVAISFGMHLNFEETQLLLRIA | -0.682
53 | HMSMEKNWVPSEDVIEILTRAGMNENFIRELIPEFIIYWSERKDVLISYDSKFIEHARLKWAQHNAE | 0.176
54 | HMPRKYFPFYFTFRETAQTMPPRLRAVFYEAIIEYGTTGKEPTLPKSIAGYWPLVKPTLDSAKAHYDAG | -0.831
55 | HMHQPPDLDDFEAFVGRVKPALLQALVATYGPVDGREATVDALSWAWEHWDRLADVDHPVGYLYRV | 0.0368

Source: the domain aggregation screens of Martell et al. (2025)
